{
  "source": "patent US20230391828A1",
  "about": "“REGULATORS OF CELL DIVISION” (TECHNISCHE UNIVERSITÄT DRESDEN, priority 2020, published 2023)",
  "key": {"[1]": {"biological_target": "recombinant human APC/C (Strep-tagged APC4), expressed in SF9 cells (human) (UniProt Q9NYG5)", "sequence (Q9NYG5 whole entry, chain 1 of 2)": "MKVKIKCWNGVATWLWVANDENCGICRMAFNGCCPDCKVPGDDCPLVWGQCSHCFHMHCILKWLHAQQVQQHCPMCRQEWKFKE", "sequence (Q9UJX5 whole entry, chain 2 of 2, further chain)": "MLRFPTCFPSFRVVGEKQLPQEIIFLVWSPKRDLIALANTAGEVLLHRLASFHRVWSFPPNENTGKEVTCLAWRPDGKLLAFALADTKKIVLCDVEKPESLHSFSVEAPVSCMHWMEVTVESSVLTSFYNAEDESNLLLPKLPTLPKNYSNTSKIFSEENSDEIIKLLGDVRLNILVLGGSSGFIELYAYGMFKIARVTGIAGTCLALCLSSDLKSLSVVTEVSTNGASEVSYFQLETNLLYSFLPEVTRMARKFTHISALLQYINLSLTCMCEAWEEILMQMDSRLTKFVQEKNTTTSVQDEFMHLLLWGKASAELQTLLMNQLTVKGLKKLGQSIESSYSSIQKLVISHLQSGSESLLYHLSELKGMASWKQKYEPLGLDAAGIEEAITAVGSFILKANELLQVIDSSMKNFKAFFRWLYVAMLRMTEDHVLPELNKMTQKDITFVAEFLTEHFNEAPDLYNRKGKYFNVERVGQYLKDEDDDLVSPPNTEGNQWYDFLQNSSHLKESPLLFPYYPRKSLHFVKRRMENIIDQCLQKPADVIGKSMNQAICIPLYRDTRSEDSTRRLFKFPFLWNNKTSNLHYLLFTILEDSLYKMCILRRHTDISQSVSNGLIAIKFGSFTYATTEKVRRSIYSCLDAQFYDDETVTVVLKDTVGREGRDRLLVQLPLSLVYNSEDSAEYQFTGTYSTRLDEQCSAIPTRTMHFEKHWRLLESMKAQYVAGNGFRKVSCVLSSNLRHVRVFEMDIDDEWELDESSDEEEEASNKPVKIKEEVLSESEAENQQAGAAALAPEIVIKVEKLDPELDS", "experiment": "cell-based or functional assay"}, "[2]": {"biological_target": "recombinant human APC/C (Strep-tagged APC4), expressed in SF9 cells (human) (UniProt Q9NYG5)", "experiment": "inhibitory constant calculated with a model for non-competitive inhibition (Prism 6.0) from the in vitro APC/C ubiquitination assay (UBE2C, securin titration, with or without 3 µM G3-6)"}},
  "note": "Bridge positions count the residues as written; N and C are the ends. Square brackets hold non-standard residues; d marks the D form. R8 = C=CCCCCCC[C@@](C)(N)C(=O)O; S5 = C=CCCC[C@](C)(N)C(=O)O",
  "data": [
    {"binder": "Ac-EWW[R8]IKEIQR[S5]RRA-NH2 (staple 4-11; SMILES CC[C@H](C)[C@@H]1NC(=O)[C@H](CCC(=O)O)NC(=O)[C@H](CCCCN)NC(=O)[C@H]([C@@H](C)CC)NC(=O)[C@](C)(NC(=O)[C@H](Cc2c[nH]c3ccccc23)NC(=O)[C@H](Cc2c[nH]c3ccccc23)NC(=O)[C@H](CCC(=O)O)NC(C)=O)CCCCCCC=CCCC[C@@](C)(C(=O)N[C@@H](CCCNC(=N)N)C(=O)N[C@@H](CCCNC(=N)N)C(=O)N[C@@H](C)C(N)=O)NC(=O)[C@H](CCCNC(=N)N)NC(=O)[C@H](CCC(N)=O)NC1=O)", "note": "[G3-6, Ac-cyclo(4,11)-EWWZIKEIQRXRRA-NH2]", "values": [
      {"measurement": "IC50, in vitro APC/C ubiquitination assay (UBE2C, securin, methylated ubiquitin, 0.01-100 µM G3-6, 10 min)", "setting": "[1]", "value": 1.96, "unit": "µM"},
      {"measurement": "Ki", "setting": "[2]", "value": 5, "unit": "µM"}
    ]}
  ]
}
